Laboratory results as given in patent US7674604 (CENTER FOR BLOOD RESEARCH, dated 2010).

What was measured:
murine ICAM-1 = murine ICAM-1 (murine, UniProt P13597 28-485, limits assumed); assay: cell-based or functional assay
[1] = biological target: T1, ICAM-1 purified from human tonsil, coated on 96-well plates (human, UniProt P05362 28-532); assay: competition: soluble I-domain against adhesion of K562 cells with wild-type LFA-1 (activated by mAb CBRLFA-1/2) to plate-coated ICAM-1; cells bound (% of input)
T1 construct: mature; also called immobilized ICAM-1

B1: recombinant soluble αL I-domain K287C/K294C (G128 to Y307) stabilized in the open conformation, made in E. coli (receptor)
chain: GNVDLVFLFDGSMSLQPDEFQKILDFMKDVMKKLSNTSYQFAAVQFSTSYKTEFDFSDYVKRKDPDALLKHVKHMLLLTNTFGAINYVATEVFREELGARPDATKVLIIITDGEATDSGNIDAAKDIIRYIIGIGKHFQTKESQETLHKFASKPASEFVCILDTFECLKDLFTELQKKIY
modifications: chain 1: disulfide between C160 and C167 (mature C287, C294)
notes: also called open I-domain; soluble open I-domain
IC50 (read off the curve), PMA-induced homotypic aggregation of EL-4 cells (aggregation score 0 to 5) (murine ICAM-1): ~1000 nM | IC50 (read off the curve) [1]: ~200 nM
